Assay results as given in patent US20090221008A1 (Human Genome Sciences, published 2009).

Tests used:
[1] = target: T1, soluble form of Neutrokine-alpha (amino acids 134 to 285 of SEQ ID NO:2) (human, UniProt Q9Y275 134-285); test: summary of Example 10
T1 construct: also called rNeutrokine-alpha; soluble Neutrokine-alpha

[2] = target: T2, membrane-bound form of Neutrokine-alpha (human, UniProt Q9Y275 1-285); test: summary of Example 10
T2 construct: Endogenous type II membrane protein on THP-1 cells, monocytes and myeloid cell lines; also called Neutrokine-alpha on the surface of THP-1 cells; cell surface Neutrokine-alpha
T2 sequence (Q9Y275 whole entry): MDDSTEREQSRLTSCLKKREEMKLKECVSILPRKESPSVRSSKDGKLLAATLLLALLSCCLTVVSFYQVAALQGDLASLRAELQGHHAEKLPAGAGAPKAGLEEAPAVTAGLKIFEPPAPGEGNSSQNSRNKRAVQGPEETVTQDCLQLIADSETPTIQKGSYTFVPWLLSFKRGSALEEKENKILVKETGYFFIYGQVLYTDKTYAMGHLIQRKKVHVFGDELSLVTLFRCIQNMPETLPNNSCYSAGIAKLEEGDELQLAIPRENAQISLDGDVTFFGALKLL

[3] = target: T3, peptide comprising amino acid residues Val-227 to Asn-242 of SEQ ID NO:2 (human); test: epitope mapping with peptides
T3 peptide: VTLFRCIQNMPETLPN

Measured: binding result

T1 sequence (Q9Y275 134-285): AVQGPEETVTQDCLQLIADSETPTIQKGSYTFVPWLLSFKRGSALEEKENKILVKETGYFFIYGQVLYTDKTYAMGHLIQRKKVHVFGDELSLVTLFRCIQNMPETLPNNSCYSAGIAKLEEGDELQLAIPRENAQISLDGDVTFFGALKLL

B1: 15C10 (antibody, human IgG1, V domains shown)
VH: QVQLQQSGAELARPGASVKMSCRASGYTFTTYTMHWVKQRPGQGLEWIGYIIPRNTYTTFNQKFKNKATLTADKSSNTAYMQLSSLTSEDSAVYYCARHYGGGYWFFDVWGAGTTVTVSS
VL: ELVMTQTPASLAVSLGQRATISCRGSESVDSYGNSFMHWYQQKPGQPPKLLIYRASNLESGIPARFSGSGSRTDFTLTIYPVEADDVATYYCQQSNDDPMYTFGGGTKLEIKR
notes: Murine monoclonal antibody; hybridoma ATCC PTA-1158; A chimeric form with human IgG1/kappa was deposited as ATCC PTA-3794; also called anti-Neutrokine-alpha antibody 15C10
binds: all assays above
